This passage reports minimal concentration that maximally inhibits TGF-β1 release and signaling (reporter assay) results from patent publication US20240042020A1.

This experiment has as its target human GARP-TGF-β1 complex (human) (UniProt Q14392).

For livmoniplimab (antibody), the minimal concentration that maximally inhibits TGF-β1 release and signaling (reporter assay) was 0.8 µg/mL.
